The supplement of paper PMC10567573

B1: NET1 (parent)
chain: IKRTIRVLDVNNQSFREQEEPSNK
B2: ADD1 (parent)
chain: LRHSFQKQQREKTRWLNSGRGDEA

Variants of: B1
Assay: protein stability index of a GFP-peptide fusion (GPS, HEK-293T) (PSI 1-6); higher = more stable
Details: c terminus: a fixed tail appended
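Note: lentivirally expressed fusions sorted by FACS into six bins by GFP to DsRed ratio, PSI derived from sequencing read proportions per bin multiplied by bin number.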

Protein stability index, by site and new letter:
R16: C 3.3, Y 3.4, T 3.85, G 3.94, H 3.69, M 3.41, W 2.07, F 3.47, S 4.06, A 4, P 3.42, N 4.57, V 3.96, K 4.21, D 4.47, Q 3.43, L 3.35, E 3.94, I 3.83
N23: V 4.04, A 2.99, E 3.96, F 2.96, H 2.28, D 4.51, K 3.56, M 3.41, Y 2.07, T 3.73, S 3.97, Q 3.65, L 3.16, G 3.56, I 3.94, C 3.8, P 2.87
Q18: A 2.27, F 2.52, G 3.59, I 3.1, C 3.09, E 3.76, N 3.52, P 3.49, H 3.7, V 3.43, S 2.79, R 3.1, L 3.06, T 3.37, Y 2.66, D 4.15, K 2.91, M 3.07
S22: Q 2.8, W 1.92, T 3.14, M 4.02, P 3.64, H 3.83, N 3.97, G 2.49, V 3.23, K 3.87, R 3.85, A 3.04, D 3.99, F 2.55, C 3.59, Y 3.34, I 3.28, E 3.42, L 2.64
S14: Y 2.6, R 3.78, W 3.01, T 3.52, V 3.47
F15: I 3.96, S 4.3, K 4.02, M 3.98, D 4.86, L 3.4, Y 3.79, H 4.44, R 4.79, T 4.09, Q 4.29, N 3.82, W 3.6, C 4.18, E 4.79, P 4.67, A 4.27, V 3.79
K24: N 3.99, L 4.23, D 3.79, I 3.29, W 2.61, T 4, S 4.07, R 3.52, A 3.46, F 2.98, Q 4.2, G 3.83, M 3.82, E 4.37, V 3.73, H 4.11, C 3.4, Y 3.61, P 3.55
E19: V 2.68, K 3.88, G 4.21, D 2.84, F 2.15, C 2.74, M 3.15, R 2.6, N 2.89, T 3.34, Y 2.43, L 2.27, P 3.44, I 2.38, H 2.9, A 2.57, Q 2.76, W 1.75, S 2.44
E17: W 1.74, Q 3.14, N 3.16, V 2.8, I 3.22, L 3.15, R 3.42, S 3.16, K 3.11, T 3.03, Y 2.44, A 3.6, C 3.27, P 2.92, F 2.8, G 3.29, M 2.92, H 3.59, D 3.25
P21: N 3.92, W 3.12, K 4.15, D 3.97, H 3.75, M 3.11, E 3.36, V 3.22, I 2.57, G 2.72, S 4.27, L 3.93, Y 3.78, A 3.29, R 3.68, C 3.54, T 3.57, F 2.35, Q 3.34
E20: G 3.19, D 3.23, P 3.33, I 3.37, L 3.16, W 2.31, H 3.05, T 3.41, K 2.9, N 3.52, C 3.27, A 3.69, F 2.97, M 3.16, V 3.04, S 3.57, R 2.93, Y 2.75, Q 2.8

Variants of: B2
Assay: as above
Details: c terminus: a fixed tail appended

Protein stability index: each site, then its substitutions
Q8: F 2.73, H 3.41, C 2.62, A 4, E 3.83, K 3.35, G 3.52, L 3.05, I 3.64, D 3.87
Q6: Y 2.85, R 3.7, G 3.11, H 3.69, S 3.18, M 3.49, P 4.11, D 4.37, C 2.27, F 3.21, A 3.78, I 3.25, L 3.54, W 2.53, V 3.56, N 3.87, K 3.99, E 4.14, T 3.7
H3: R 3.61, I 3.16, A 3.67, V 3.32, K 3.75, E 3.98, N 3.65, G 3.93, S 4.03, T 3.94, W 2.28, F 3.14, P 3.77, D 4.53, Y 3.48, M 3.29, L 3.54, C 2.31, Q 3.67
K7: S 4.24, F 3.63, N 4.21, D 3.87, L 3.89, I 3.1, C 1.8, T 3.67, W 3.08, Q 4.27, E 4.33, V 3.38, M 3.22, H 3.53, A 3.95, P 3.86, R 3.01, G 4.57, Y 3.51
R2: N 4.3, D 5.03, K 3.71, Q 3.94, L 3, Y 3.26, H 4.03, E 4.42, I 3.06, T 4.05, P 4.33, W 2.92, M 3.85, F 2.99, V 3.11, S 3.6, C 3.58, A 4.17, G 3.97
L1: W 2.92, D 3.7, A 4.57, Y 3.75, S 4.35, E 4.34, K 3.62, Q 3.78, M 3.65, P 4.04, G 4.21, I 3.92, N 4.11, T 4.32, H 3.92, C 3.23, R 4.42, V 3.71, F 3.8
F5: Y 3.71, Q 4.19, D 4.37, A 4.44, H 4.24, I 3.74, S 4.17, E 4.71, P 4.4, V 4.17, T 4.11, G 4.16, K 3.7, M 3.8, C 2.21, N 4.37, L 3.83, W 3.44, R 3.43
S4: M 2.84, A 3.59, L 2.26, T 3.57, D 3.88, E 3.86, I 2.82, H 2.74, K 3, C 3.01, N 4.03, F 2.92, R 3.21, P 3.3, W 3.04, Q 3.72, V 3.15, G 3.45, Y 2.45
